Results: paper PMC11324745

Target: DNA polymerase theta helicase domain (Polθ-hel, residues 1–894) (human), O75417
Assay: cryo-EM structure
Conditions: remark: other sources report otherwise

percent of particles in the dimeric form: 95%
percent of particles in the tetrameric form: 5%
B1: DNA polymerase theta helicase domain (Polθ-hel, residues 1–894), O75417 1-894 (domain or fragment)
chain: MNLLRRSGKRRRSESGSDSFSGSGGDSSASPQFLSGSVLSPPPGLGRCLKAAAAGECKPTVPDYERDKLLLANWGLPKAVLEKYHSFGVKKMFEWQAECLLLGQVLEGKNLVYSAPTSAGKTLVAELLILKRVLEMRKKALFILPFVSVAKEKKYYLQSLFQEVGIKVDGYMGSTSPSRHFSSLDIAVCTIERANGLINRLIEENKMDLLGMVVVDELHMLGDSHRGYLLELLLTKICYITRKSASCQADLASSLSNAVQIVGMSATLPNLELVASWLNAELYHTDFRPVPLLESVKVGNSIYDSSMKLVREFEPMLQVKGDEDHVVSLCYETICDNHSVLLFCPSKKWCEKLADIIAREFYNLHHQAEGLVKPSECPPVILEQKELLEVMDQLRRLPSGLDSVLQKTVPWGVAFHHAGLTFEERDIIEGAFRQGLIRVLAATSTLSSGVNLPARRVIIRTPIFGGRPLDILTYKQMVGRAGRKGVDTVGESILICKNSEKSKGIALLQGSLKPVRSCLQRREGEEVTGSMIRAILEIIVGGVASTSQDMHTYAACTFLAASMKEGKQGIQRNQESVQLGAIEACVMWLLENEFIQSTEASDGTEGKVYHPTHLGSATLSSSLSPADTLDIFADLQRAMKGFVLENDLHILYLVTPMFEDWTTIDWYRFFCLWEKLPTSMKRVAELVGVEEGFLARCVKGKVVARTERQHRQMAIHKRFFTSLVLLDLISEVPLREINQKYGCNRGQIQSLQQSAAVYAGMITVFSNRLGWHNMELLLSQFQKRLTFGIQRELCDLVRVSLLNAQRARVLYASGFHTVADLARANIVEVEVILKNAVPFKSARKAVDEEEEAVEERRNMRTIWVTGRKGLTEREAAALIVEEARMILQQDLVEM
